Values quoted from earlier work as cited in publication PMC3176300.

Columns and labels:
[1] = biological target: α-Galactosidase A (Homo sapiens) (UniProt P06280); experiment: SPR
Sortilin (Homo sapiens) = Sortilin (Homo sapiens) (UniProt Q99523)
Megalin = Megalin (UniProt P98164)

Chain of UniProt P06280 (P06280 32-429): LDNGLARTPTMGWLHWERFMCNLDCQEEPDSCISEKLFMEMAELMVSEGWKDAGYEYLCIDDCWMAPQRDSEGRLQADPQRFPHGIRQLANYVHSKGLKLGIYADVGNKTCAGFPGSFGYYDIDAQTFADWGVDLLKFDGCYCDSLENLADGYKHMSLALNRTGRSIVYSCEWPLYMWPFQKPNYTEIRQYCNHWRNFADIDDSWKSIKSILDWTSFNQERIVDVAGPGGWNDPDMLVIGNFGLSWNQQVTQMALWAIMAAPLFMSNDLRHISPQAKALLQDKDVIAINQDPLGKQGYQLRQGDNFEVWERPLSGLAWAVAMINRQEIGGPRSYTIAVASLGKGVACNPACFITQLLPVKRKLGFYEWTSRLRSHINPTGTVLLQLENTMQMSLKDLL
Chain of UniProt Q99523 (Q99523 78-755): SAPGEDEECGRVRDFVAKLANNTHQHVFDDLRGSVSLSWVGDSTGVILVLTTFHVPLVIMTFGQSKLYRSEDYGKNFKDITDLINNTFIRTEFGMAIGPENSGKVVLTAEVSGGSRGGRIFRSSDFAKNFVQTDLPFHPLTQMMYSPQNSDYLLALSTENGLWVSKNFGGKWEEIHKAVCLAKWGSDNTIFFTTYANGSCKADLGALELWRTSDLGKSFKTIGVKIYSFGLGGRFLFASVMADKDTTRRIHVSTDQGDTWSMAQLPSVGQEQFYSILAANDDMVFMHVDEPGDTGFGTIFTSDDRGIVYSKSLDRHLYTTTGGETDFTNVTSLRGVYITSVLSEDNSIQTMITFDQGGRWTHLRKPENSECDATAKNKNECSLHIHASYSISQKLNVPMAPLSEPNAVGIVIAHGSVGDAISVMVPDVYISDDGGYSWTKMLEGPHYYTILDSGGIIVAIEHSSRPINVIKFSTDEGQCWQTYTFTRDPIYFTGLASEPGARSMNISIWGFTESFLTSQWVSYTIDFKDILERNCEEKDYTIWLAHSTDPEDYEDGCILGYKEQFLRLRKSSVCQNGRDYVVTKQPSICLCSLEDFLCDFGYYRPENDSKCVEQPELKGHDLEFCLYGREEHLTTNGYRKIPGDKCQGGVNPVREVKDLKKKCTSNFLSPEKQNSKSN

Substance | Kd [1] [nM] | Kd (Sortilin (Homo sapiens)) [nM] | Kd (Megalin) [nM]
Megalin (from UniProt P98164) | 600 | – | –
RAP (from UniProt P30533) | – | 78 | 8
